B1: SRP1848-F04 (antibody, V domains shown)
VH: EVQLVESGGGLVQPGGSLRLSCAASGFNISNYSIHWVRQAPGKGLEWVGEIYPIDGITDYADSVKGRFTISADTSKNTAYLQMNSLRAEDTAVYYCARGSWFWRSGYGYYLDYWGQGTLVTVSS
VL: not shown
notes: VH/VL only; Fc-bearing IgG format with trastuzumab LC, HIS/FLAG-tagged, cell-free expressed; constant regions not tied; also called Antibody 39
B2: SRP1848-D09 (antibody, V domains shown)
VH: B1 VH with S33Y, E50G, Y52S, I54N, I57Y, F102S, S105H
VL: not shown
notes: VH/VL only; Fc-bearing IgG format with trastuzumab LC, HIS/FLAG-tagged, cell-free expressed; constant regions not tied; also called Antibody 29
B3: SRP1848-B03 (antibody, V domains shown)
VH: B1 VH with N31M, Y32K, S33Y, E50G, Y52T, I57M, F102S, R104P, G108S
VL: not shown
notes: VH/VL only; Fc-bearing IgG format with trastuzumab LC, HIS/FLAG-tagged, cell-free expressed; constant regions not tied; also called Antibody 10
B4: SRP1848-F08 (antibody, V domains shown)
VH: B1 VH with S25G, Y32H, L45V, I54V, Q82R, F102Y, R104Q, G108S
VL: not shown
notes: VH/VL only; Fc-bearing IgG format with trastuzumab LC, HIS/FLAG-tagged, cell-free expressed; constant regions not tied; also called Antibody 43
B5: SRP1848-B01 (antibody, V domains shown)
VH: B1 VH with S30R, I54V, S100F, F102S, R104P, G108S, Y110F
VL: not shown
notes: VH/VL only; Fc-bearing IgG format with trastuzumab LC, HIS/FLAG-tagged, cell-free expressed; constant regions not tied; also called Antibody 9
B6: SRP1848-D07 (antibody, V domains shown)
VH: B1 VH with N31K, S33Y, E50G, Y52S, I54N, I57Y, T69A, S100F, F102A
VL: not shown
notes: VH/VL only; Fc-bearing IgG format with trastuzumab LC, HIS/FLAG-tagged, cell-free expressed; constant regions not tied; also called Antibody 28
B7: SRP1848-A04 (antibody, V domains shown)
VH: B1 VH with S30D, N31Q, Y32S, E50V, I54V, I57T, S100A, F102S, L111I
VL: not shown
notes: VH/VL only; Fc-bearing IgG format with trastuzumab LC, HIS/FLAG-tagged, cell-free expressed; constant regions not tied; also called Antibody 3
B8: SRP1848-B04 (antibody, V domains shown)
VH: B1 VH with G26S, Y32H, I54V, S100R, W101Y, F102S, S105A, G108S
VL: not shown
notes: VH/VL only; Fc-bearing IgG format with trastuzumab LC, HIS/FLAG-tagged, cell-free expressed; constant regions not tied; also called Antibody 11
B9: SRP1848-C04 (antibody, V domains shown)
VH: B1 VH with S30R, N31H, I54G, D55P, I57N, W101L, F102S, S105A
VL: not shown
notes: VH/VL only; Fc-bearing IgG format with trastuzumab LC, HIS/FLAG-tagged, cell-free expressed; constant regions not tied; also called Antibody 20
B10: SRP1848-D04 (antibody, V domains shown)
VH: B1 VH with N31H, I54R, R87S, S100Y
VL: not shown
notes: VH/VL only; Fc-bearing IgG format with trastuzumab LC, HIS/FLAG-tagged, cell-free expressed; constant regions not tied; also called Antibody 26
B11: SRP1848-C01 (antibody, V domains shown)
VH: EVQLVESGGGLVQPGGSLRLSCAASGFNIGNSYIHWVRQAPGKGLEWVGGVTPNDGYTDYADSVKGRFTISADTSKNTTYLQMNSLRAEDTAVYYCARGSWFWRAGYGYYLDYWGQGALVTVSS
VL: not shown
notes: VH/VL only; Fc-bearing IgG format with trastuzumab LC, HIS/FLAG-tagged, cell-free expressed; constant regions not tied; also called Antibody 18
B12: SRP1848-A08 (antibody, V domains shown)
VH: B1 VH with F27S, S30R, N31K, Y32H, E50S, I54N, I57T, S105A
VL: not shown
notes: VH/VL only; Fc-bearing IgG format with trastuzumab LC, HIS/FLAG-tagged, cell-free expressed; constant regions not tied; also called Antibody 6
B13: SRP1848-A06 (antibody, V domains shown)
VH: B11 VH with V51I, N54I, Y57N, T79A, S100A, F102S, A105S, L111I, A118T
VL: not shown
notes: VH/VL only; Fc-bearing IgG format with trastuzumab LC, HIS/FLAG-tagged, cell-free expressed; constant regions not tied; also called Antibody 4
B14: SRP1848-A10 (antibody, V domains shown)
VH: B1 VH with S30R, N31K, V37A, E50D, Y52F, G56D, F102S, R104P, Y107H, G108S
VL: not shown
notes: VH/VL only; Fc-bearing IgG format with trastuzumab LC, HIS/FLAG-tagged, cell-free expressed; constant regions not tied; also called Antibody 8

Positions count from the first letter of the chain named.

T1 sequence (P15328 other isoform, or with tags, fused parts or gaps limits assumed): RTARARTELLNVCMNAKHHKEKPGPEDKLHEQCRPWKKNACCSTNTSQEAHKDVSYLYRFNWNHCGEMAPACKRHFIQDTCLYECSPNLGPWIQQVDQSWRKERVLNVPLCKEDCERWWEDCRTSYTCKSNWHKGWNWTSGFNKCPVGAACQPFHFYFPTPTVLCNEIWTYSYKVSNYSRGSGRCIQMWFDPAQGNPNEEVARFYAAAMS
T3 sequence (P35846 25-232 limits assumed): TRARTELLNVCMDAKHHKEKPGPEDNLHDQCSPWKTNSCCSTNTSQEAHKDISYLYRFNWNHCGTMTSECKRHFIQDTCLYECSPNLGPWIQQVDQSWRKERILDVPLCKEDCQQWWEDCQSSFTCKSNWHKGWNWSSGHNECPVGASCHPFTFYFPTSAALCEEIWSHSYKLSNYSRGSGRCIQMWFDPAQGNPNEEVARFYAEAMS
T2 sequence (P15328 25-234 limits assumed): as the sequence (P15328 other isoform, or with tags, fused parts or gaps limits assumed) above, with T2I, R4W, K37R, R117Q, P146A, Y171H counted along it

The first assay concerns the target T1, Cynomolgus folate receptor alpha (cynomolgus monkey, UniProt P15328 25-234 (human entry)).
T1 construct: Stably expressed on CHO cells (CHO-cFOLR1); also called cynomolgus FOLR1; CHO-cFOLR1
As to the kind of experiment: FACS, CHO-cFOLR1 cells.
Take B1: the Bmax is 26400 MFI.
B2 showed a Bmax of 21300 MFI.
Same read-out and setting: the value for B3 was 17200 MFI; that for B4 was 21000 MFI; that for B5 was 23900 MFI.
Still for that read-out and setting: the value for B6 was 24300 MFI; that for B7 was 23100 MFI; that for B8 was 27800 MFI.
For the molecule B9, the Bmax was determined as 22000 MFI.
On the same count and under the same terms, the value for B10 was 25700 MFI; that for B11 was 25900 MFI; that for B12 was 26200 MFI.
Molecule B13 gave a Bmax of 20200 MFI.
Still for that read-out and setting: the value for B14 was 14800 MFI.

Another assay concerns the target T2, Human folate receptor alpha (hFOLR1) (human, UniProt P15328 25-234).
T2 construct: Stably expressed on CHO cells (CHO-hFOLR1) for flow cytometry; endogenous on FOLR1-positive KB and Igrov1 cells in the killing assay; also called human FOLR1; FolRα
As to the kind of experiment: FACS, CHO-hFOLR1 cells. Here is the method:
CHO cells were transfected to stably express human (CHO-hFOLR1), cynomolgus (CHO-cFOLR1), or mouse (CHO-mFOLR1) target molecule FOLR1 on the cell surface. Parental CHO cells were used as a negative control to determine background binding levels. Parental CHO and stably transfected CHO-hFOLR1, CHO-cFOLR1, and CHO-mFOLR1 cells were cultured in Ham's F-12: high glucose DMEM (50:50) (Corning, Cellgro-Mediatech) supplemented with 10% heat-inactivated fetal bovine serum (Corning, Cellgro-Mediatech), 1% Penicillin/Streptomycin (Corning, Cellgro-Mediatech) and 2 mmol/L-glutamax (Life Technology).
A mixture of fluoresecent-labeled parental CHO cells and unlabeled CHO-hFOLRlcells were prepared as follows. Parental CHO cells were washed twice in PBS and incubated in PBS containing with 1 nM CellTrace™ Oregon Green488® (Life Technologies) at 37° C. for 30 minutes. Labeled parental CHO cells were then washed 2× with Ham's F-12 media and 2× with FACS buffer (PBS with 1% bovine serum albumin). Unlabeled CHO-hFOLR1 cells were similarly washed and prepared. Labeled parental CHO and unlabeled CHO-hFOLR1 cells were combined at 1:1 ratio and seeded at 50 μL per well (200,000 cells per well) in 96 well polypropylene plates. Cells were mixed with 50 μL of test antibodies (i.e., anti-FOLR1 variants) serially diluted in FACS buffer and incubated on ice for 60 mins. Cells were washed with FACS buffer and incubated on ice for 60 mins with 100 μL FACS buffer containing 2.5 μg/mL R-Phycoerythrin-conjugated goat anti-Human IgG (Jackson ImmunoResearch Laboratories, West Grove, Pa.). Cells were washed twice with FACS buffer, fixed in 2% paraformaldehyde in PBS (Santa Cruz Biotechnology; Dallas, Tex.) for 10 mins on ice in the dark, and analyzed using the BD LSR II Flow Cytometer (BD Biosciences; San Jose, Calif.). Data were analyzed using FlowJo® software (FlowJo, LLC; Ashland, Oreg.) to determine mean fluorescence intensities. Binding constants were calculated using the statistical software, GraphPad Prism (GraphPad Software; La Jolla, Calif.) using the nonlinear regression equation, one site-specific binding with Hill slope. Secondary antibody alone was used as a control, in addition to measuring non-specific antibody binding to CHO parental cells.
B1 yielded a Bmax of 26900 MFI.
As to B2, the Bmax amounted to 25000 MFI.
The same measure, in the same setting: the value for B3 was 26300 MFI; that for B4 was 26500 MFI.
On the same count and under the same terms, the value for B5 was 26600 MFI; that for B6 was 25700 MFI; that for B7 was 26800 MFI.
Regarding B8, the Bmax amounted to 27800 MFI.
For B9, the Bmax came out at 26300 MFI.
In turn, B10 returned a Bmax of 29300 MFI.
Same read-out and setting: the value for B11 was 28500 MFI.
Still for that read-out and setting: under B12 stands 28600 MFI; under B13, 24500 MFI.
On the same count and under the same terms, under B14 stands 27100 MFI.

A further assay addresses T3, Murine folate receptor alpha (mouse, UniProt P35846 25-232).
T3 construct: Stably expressed on CHO cells (CHO-mFOLR1); also called mouse FOLR1; CHO-mFOLR1
The assay can be described thus: FACS, CHO-mFOLR1 cells. In general terms: Flow cytometry measures light scatter and fluorescence of single cells or particles in a stream.
B1: the Bmax came out at 2740 MFI.
As for B3, the Bmax was found to be 2720 MFI.
Same read-out and setting: under B5 stands 3400 MFI; under B7, 3890 MFI.
The same measure, in the same setting: under B8 stands 2190 MFI; under B9, 2510 MFI; under B11, 1370 MFI.
Still for that read-out and setting: the value for B12 was 3200 MFI.
For the molecule B13, the Bmax was 2770 MFI.
Same read-out and setting: the value for B14 was 10200 MFI.

Values taken from US20190233512A1 (SUTRO BIOPHARMA, published 2019).
